Elevation in the level of GFP-TTC concentration, increase of GFP-TTC signal and GFP-TTC localization data for two substances are collected here from patent publication US20050060761A1.

The assay has as its target TrkB receptor (endogenous, at mouse motor nerve terminals) (mouse) (UniProt P15209). Put plainly: cell-based or functional assay.
UniProt P15209, sequence (P15209 32-821): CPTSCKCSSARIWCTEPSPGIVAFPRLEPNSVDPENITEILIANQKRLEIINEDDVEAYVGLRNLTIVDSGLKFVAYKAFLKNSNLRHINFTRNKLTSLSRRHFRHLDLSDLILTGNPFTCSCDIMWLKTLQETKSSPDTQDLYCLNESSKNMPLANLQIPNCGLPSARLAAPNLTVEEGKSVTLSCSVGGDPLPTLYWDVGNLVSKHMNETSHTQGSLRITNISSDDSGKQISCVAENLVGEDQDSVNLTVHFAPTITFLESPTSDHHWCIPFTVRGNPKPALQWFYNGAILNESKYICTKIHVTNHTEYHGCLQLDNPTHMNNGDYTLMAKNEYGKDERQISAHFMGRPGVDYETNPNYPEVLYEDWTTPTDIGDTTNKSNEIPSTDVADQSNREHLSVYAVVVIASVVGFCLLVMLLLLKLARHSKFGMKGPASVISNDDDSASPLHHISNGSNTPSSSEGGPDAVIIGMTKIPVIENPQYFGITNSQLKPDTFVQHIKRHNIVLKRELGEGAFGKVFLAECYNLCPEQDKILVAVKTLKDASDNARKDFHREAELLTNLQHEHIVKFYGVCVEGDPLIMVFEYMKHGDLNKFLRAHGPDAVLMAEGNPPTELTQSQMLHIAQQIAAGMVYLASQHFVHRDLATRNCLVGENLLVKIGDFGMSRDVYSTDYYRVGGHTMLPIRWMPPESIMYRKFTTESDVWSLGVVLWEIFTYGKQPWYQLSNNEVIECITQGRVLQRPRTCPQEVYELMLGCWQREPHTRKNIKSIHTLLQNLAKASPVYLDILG

For “recombinant human Brain Derived Neurotrophic Factor (BDNF) (from UniProt P23560 129-247) (ligand)”, the elevation in the level of GFP-TTC concentration at the NMJ (LAL), 100 ng BDNF was found to be 1.72 fold; the elevation in the level of GFP-TTC concentration at the NMJ (LAL), 250 ng BDNF is 1.15 fold; the increase of GFP-TTC signal at the NMJ by BDNF after BoTx/A treatment is 2.05 fold.
For “recombinant human Neurotrophin 4 (NT-4) (from UniProt P34130 81-210) (ligand)”, the GFP-TTC localization at the NMJ, fold increase was found to be 1.54 fold.
